# Assay results as given in patent US20210115133A1 (NGM BIOPHARMACEUTICALS, published 2021).
# Target: T1, human beta klotho expressed on cells (human, UniProt Q86Z14 1-1044)
# T1 sequence: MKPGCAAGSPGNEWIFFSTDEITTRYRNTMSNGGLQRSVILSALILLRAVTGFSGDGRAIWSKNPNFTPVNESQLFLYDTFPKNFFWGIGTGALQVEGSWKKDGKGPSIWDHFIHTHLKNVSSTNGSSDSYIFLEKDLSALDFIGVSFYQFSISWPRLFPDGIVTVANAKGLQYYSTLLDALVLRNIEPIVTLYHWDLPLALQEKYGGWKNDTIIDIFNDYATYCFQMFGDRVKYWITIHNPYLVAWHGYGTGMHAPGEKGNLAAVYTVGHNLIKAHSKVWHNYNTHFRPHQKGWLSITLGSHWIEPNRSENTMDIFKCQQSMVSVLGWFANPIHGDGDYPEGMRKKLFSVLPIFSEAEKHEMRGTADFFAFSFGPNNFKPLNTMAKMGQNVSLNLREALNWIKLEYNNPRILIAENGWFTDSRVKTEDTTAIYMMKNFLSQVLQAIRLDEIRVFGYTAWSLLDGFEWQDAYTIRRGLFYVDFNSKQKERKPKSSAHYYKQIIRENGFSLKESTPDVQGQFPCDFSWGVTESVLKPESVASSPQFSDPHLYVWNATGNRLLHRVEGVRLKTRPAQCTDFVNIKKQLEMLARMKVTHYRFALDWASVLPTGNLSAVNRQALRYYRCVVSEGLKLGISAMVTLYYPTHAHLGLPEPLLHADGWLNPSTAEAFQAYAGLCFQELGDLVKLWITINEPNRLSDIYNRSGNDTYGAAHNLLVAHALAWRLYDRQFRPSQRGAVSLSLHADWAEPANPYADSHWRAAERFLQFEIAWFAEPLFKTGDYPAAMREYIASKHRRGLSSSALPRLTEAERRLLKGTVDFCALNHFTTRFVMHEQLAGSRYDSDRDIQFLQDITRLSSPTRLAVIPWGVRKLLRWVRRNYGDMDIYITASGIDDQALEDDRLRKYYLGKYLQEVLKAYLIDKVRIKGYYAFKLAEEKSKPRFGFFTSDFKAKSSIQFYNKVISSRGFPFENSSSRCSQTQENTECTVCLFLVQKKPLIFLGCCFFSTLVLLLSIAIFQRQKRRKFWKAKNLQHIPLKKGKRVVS
# Assay: cell-based or functional assay
binder,measurement,value
"anti-beta klotho monoclonal antibody 3I13 (antibody, V domains shown, Murine monoclonal antibody from a hybridoma (captured by anti-mouse Fc); also called 3I13 - Alexa488) VH: QVQLQQSGPELVKPGASVKISCKTSGYTFTEYTMHWVKQSHGKSLEWIGSFNPDSGGTSYNQKFKGKATLTVDKSSSTAYMELRSLTSEDSAVYYCARDDGYSTRYWYFDVWGAGTTVTVSS VL: DIQMTQSPASLSASVGETVTITCGASENIYGALNWFQRKQGKSPQLLIYGATILADGMSSRFSGSGSGRQYSLKISSLHPDDVATYYCQNVLSTPYTFGGGTKLEIK",HEK293 huKLB/R1c reporter assay EC50 (Experiment - A),0.333 nM
same,HEK293 huKLB/R1c reporter assay EC50 (Experiment - B),1.99 nM
